The values below come from PMC11741350.

Assay [1] concerns the target HA-RNF25 mutant lacking the RING+L+U5BR domains (human). The assay can be described thus: co-IP.
The target of assay [2] is HA-RNF25 mutant lacking the Proline-Rich domain (human). The experiment in a line: co-IP.

REV7, sequence (Q9UI95 whole entry): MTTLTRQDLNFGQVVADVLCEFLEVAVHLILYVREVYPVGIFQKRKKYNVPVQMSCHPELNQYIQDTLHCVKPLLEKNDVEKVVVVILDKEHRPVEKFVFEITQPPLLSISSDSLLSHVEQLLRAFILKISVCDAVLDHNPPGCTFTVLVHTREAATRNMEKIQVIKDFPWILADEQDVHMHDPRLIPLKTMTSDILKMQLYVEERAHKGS

As for “REV7 (from UniProt Q9UI95 1-211) (natural protein)”, the fold reduction of co-precipitated REV7 against wild-type HA-RNF25 in assay [1] was found to be 2.33 fold; in assay [2] it was 3.13 fold.
